Source: patent US20100166759A1

Target: MT2 protein (from Sigma) (UniProt P02795)
Assay: SPR (BIAcoreX), MT2 immobilised on CM5 chip, peptide injected

Binder | Kd [nM] | koff [s⁻¹] | kon [M⁻¹ s⁻¹]
SAGSCKCKESKSTS [MTBcc peptide] | 160 | 0.000501 | 2830
AQGSICKGASDKSS [MTAcc peptide] | 89.5 | 0.0004 | 4540
KKSSCSCSPVGSAK [MTAn peptide] | 367 | 0.00574 | 15700
